Reference: the supplement of paper PMC9112550, “Optimization of the antimicrobial peptide Bac7 by deep mutational scanning” (BMC Biology, 2022)

tested on: Escherichia coli TOP10; experiment: shrunken log2 fold change of peptide-encoding DNA abundance (4.5 h post-induction vs induction); higher = less antimicrobial activity (less host growth inhibition); settings: time post-induction: 4.5 h; library: site-saturation at positions 5, 18, 19, 20
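Further: peptides expressed intracellularly from a pBAD plasmid library in pooled LB shake-flask culture, induced with 0.3% L-arabinose, DNA abundance read by NGS, three biological replicates, DESeq2 with apeglm shrinkage.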

| Sequence | shrunken log2 fold change |
| --- | --- |
| RRIRGRPPRLPRPRPRPWCAPRP | 0.407 |
| RRIRYRPPRLPRPRPRPRTCPRP | -0.134 |
| RRIRQRPPRLPRPRPRPEATPRP | 0.353 |
| RRIRQRPPRLPRPRPRPFYFPRP | -0.697 |
| RRIRMRPPRLPRPRPRPYKLPRP | 0.00411 |
| RRIRDRPPRLPRPRPRPYKKPRP | 0.00426 |
| RRIRARPPRLPRPRPRPYFCPRP | -0.346 |
| RRIRDRPPRLPRPRPRPCLKPRP | -0.000218 |
| RRIRDRPPRLPRPRPRPDIEPRP | 0.105 |
| RRIRCRPPRLPRPRPRPANDPRP | -0.799 |
| RRIRPRPPRLPRPRPRPCESPRP | 0.183 |
| RRIRYRPPRLPRPRPRPFCWPRP | -0.212 |
| RRIRPRPPRLPRPRPRPHFVPRP | -0.144 |
| RRIRVRPPRLPRPRPRPTDDPRP | -0.183 |
| RRIRPRPPRLPRPRPRPVKEPRP | 0.0267 |
| RRIRQRPPRLPRPRPRPHPSPRP | -0.462 |
| RRIRVRPPRLPRPRPRPSLSPRP | -0.303 |
| RRIRKRPPRLPRPRPRPICGPRP | 0.0699 |
| RRIRVRPPRLPRPRPRPFETPRP | -0.0538 |
| RRIRHRPPRLPRPRPRPHFAPRP | -0.101 |
| RRIRQRPPRLPRPRPRPGRCPRP | 0.321 |
| RRIRSRPPRLPRPRPRPRCVPRP | 0.116 |
| RRIRPRPPRLPRPRPRPGNDPRP | -0.0392 |
| RRIRDRPPRLPRPRPRPDDNPRP | 0.153 |
| RRIRLRPPRLPRPRPRPISVPRP | -0.343 |

| Sequence | shrunken log2 fold change |
| --- | --- |
| RRIRLRPPRLPRPRPRPWQRPRP | -0.161 |
| RRIRPRPPRLPRPRPRPAHIPRP | -0.205 |
| RRIRHRPPRLPRPRPRPWSSPRP | -0.116 |
| RRIRWRPPRLPRPRPRPNACPRP | 0.478 |
| RRIRGRPPRLPRPRPRPCFLPRP | 0.0171 |
| RRIRWRPPRLPRPRPRPHWGPRP | 0.171 |
| RRIRKRPPRLPRPRPRPPIGPRP | 0.407 |
| RRIRFRPPRLPRPRPRPVVQPRP | -0.119 |
| RRIRGRPPRLPRPRPRPILDPRP | 0.277 |
| RRIRIRPPRLPRPRPRPKPEPRP | 0.0874 |
| RRIRCRPPRLPRPRPRPWAEPRP | -0.136 |
| RRIRDRPPRLPRPRPRPSAQPRP | 0.469 |
| RRIRQRPPRLPRPRPRPMHHPRP | -0.288 |
| RRIRVRPPRLPRPRPRPTMDPRP | -0.116 |
| RRIRYRPPRLPRPRPRPFKMPRP | -0.673 |
| RRIRCRPPRLPRPRPRPTQGPRP | 0.954 |
| RRIRDRPPRLPRPRPRPLKIPRP | -0.297 |
| RRIRWRPPRLPRPRPRPPKTPRP | 0.199 |
| RRIRSRPPRLPRPRPRPHIAPRP | -0.255 |
| RRIRQRPPRLPRPRPRPGIMPRP | -0.0424 |
| RRIRGRPPRLPRPRPRPSLQPRP | 1.07 |
| RRIRWRPPRLPRPRPRPHCVPRP | -0.169 |
| RRIRCRPPRLPRPRPRPIHSPRP | -0.221 |
| RRIRKRPPRLPRPRPRPGKPPRP | 0.115 |
| RRIRVRPPRLPRPRPRPRKPPRP | 0.0947 |

| Sequence | shrunken log2 fold change |
| --- | --- |
| RRIRWRPPRLPRPRPRPGHWPRP | 0.335 |
| RRIRYRPPRLPRPRPRPYYWPRP | -0.111 |
| RRIRMRPPRLPRPRPRPDEIPRP | 2.86 |
| RRIRNRPPRLPRPRPRPGMYPRP | -0.242 |
| RRIRTRPPRLPRPRPRPFGFPRP | -0.473 |
| RRIRGRPPRLPRPRPRPHSDPRP | 0.204 |
| RRIRGRPPRLPRPRPRPDQAPRP | 0.925 |
| RRIRSRPPRLPRPRPRPEKKPRP | 0.0751 |
| RRIRSRPPRLPRPRPRPSWAPRP | -0.0813 |
| RRIRPRPPRLPRPRPRPHKYPRP | -0.29 |
| RRIRLRPPRLPRPRPRPRWMPRP | 0.162 |
| RRIRWRPPRLPRPRPRPWEKPRP | 0.624 |
| RRIRARPPRLPRPRPRPEMLPRP | 0.234 |
| RRIRVRPPRLPRPRPRPPEVPRP | 0.0599 |
| RRIRSRPPRLPRPRPRPYGNPRP | -0.621 |
| RRIRYRPPRLPRPRPRPNCGPRP | -0.00237 |
| RRIRVRPPRLPRPRPRPGYKPRP | -0.222 |
| RRIRERPPRLPRPRPRPYELPRP | -0.563 |
| RRIRLRPPRLPRPRPRPGSLPRP | -0.0743 |
| RRIRFRPPRLPRPRPRPWGWPRP | 0.346 |
| RRIRFRPPRLPRPRPRPIILPRP | -1.74 |
| RRIRERPPRLPRPRPRPGQCPRP | 0.0236 |
| RRIRQRPPRLPRPRPRPLQNPRP | 0.139 |
| RRIRTRPPRLPRPRPRPWMLPRP | -0.0281 |
| RRIRERPPRLPRPRPRPRKEPRP | -0.0305 |

| Sequence | shrunken log2 fold change |
| --- | --- |
| RRIRFRPPRLPRPRPRPFLSPRP | -0.167 |
| RRIRWRPPRLPRPRPRPQHGPRP | -0.164 |
| RRIRKRPPRLPRPRPRPWCFPRP | 0.164 |
| RRIRIRPPRLPRPRPRPSYCPRP | -0.408 |
| RRIRPRPPRLPRPRPRPIRTPRP | 0.289 |
| RRIRFRPPRLPRPRPRPFYAPRP | -0.542 |
| RRIRFRPPRLPRPRPRPAVQPRP | -0.0142 |
| RRIRYRPPRLPRPRPRPNEMPRP | 0.0143 |
| RRIRYRPPRLPRPRPRPIGCPRP | 0.225 |
| RRIRGRPPRLPRPRPRPALQPRP | 0.333 |
| RRIRWRPPRLPRPRPRPRNVPRP | -0.0411 |
| RRIRGRPPRLPRPRPRPDTQPRP | 0.632 |
| RRIRQRPPRLPRPRPRPPNHPRP | -0.157 |
| RRIRIRPPRLPRPRPRPAVMPRP | -0.129 |
| RRIRQRPPRLPRPRPRPTNIPRP | -0.122 |
| RRIRNRPPRLPRPRPRPSCQPRP | -0.185 |
| RRIRIRPPRLPRPRPRPMCTPRP | -0.0274 |
| RRIRFRPPRLPRPRPRPFNGPRP | -0.163 |
| RRIRFRPPRLPRPRPRPWKGPRP | -0.0869 |
| RRIRCRPPRLPRPRPRPPPYPRP | 0.511 |
| RRIRWRPPRLPRPRPRPICQPRP | -0.146 |
| RRIRNRPPRLPRPRPRPHYEPRP | 0.0239 |
| RRIRQRPPRLPRPRPRPAHPPRP | 0.181 |
| RRIRQRPPRLPRPRPRPCVHPRP | -0.629 |
| RRIRTRPPRLPRPRPRPKIIPRP | -0.211 |

| Sequence | shrunken log2 fold change |
| --- | --- |
| RRIRMRPPRLPRPRPRPSQHPRP | 0.136 |
| RRIRPRPPRLPRPRPRPLHAPRP | 0.282 |
| RRIRPRPPRLPRPRPRPPPDPRP | 0.622 |
| RRIRSRPPRLPRPRPRPLTRPRP | 0.0286 |
| RRIRRRPPRLPRPRPRPANDPRP | 0.275 |
| RRIRCRPPRLPRPRPRPKWDPRP | 0.13 |
| RRIRQRPPRLPRPRPRPWSYPRP | -0.106 |
| RRIRWRPPRLPRPRPRPWQPPRP | -0.0542 |
| RRIRFRPPRLPRPRPRPESHPRP | -0.154 |
| RRIRFRPPRLPRPRPRPVKFPRP | -0.0322 |
| RRIRFRPPRLPRPRPRPRHFPRP | 0.0931 |
| RRIRYRPPRLPRPRPRPFPIPRP | -0.705 |
| RRIRYRPPRLPRPRPRPGHTPRP | -0.626 |
| RRIRNRPPRLPRPRPRPMKDPRP | 0.145 |
| RRIRWRPPRLPRPRPRPNNKPRP | -0.392 |
| RRIRPRPPRLPRPRPRPYFSPRP | -0.31 |
| RRIRDRPPRLPRPRPRPHSEPRP | 0.00449 |
| RRIRPRPPRLPRPRPRPTPRPRP | 0.769 |
| RRIRKRPPRLPRPRPRPNFRPRP | 0.155 |
| RRIRCRPPRLPRPRPRPGQNPRP | 0.261 |
| RRIRPRPPRLPRPRPRPVCYPRP | -0.309 |
| RRIRFRPPRLPRPRPRPRYDPRP | -0.408 |
| RRIRVRPPRLPRPRPRPDNMPRP | -0.868 |
| RRIRARPPRLPRPRPRPIAAPRP | 0.925 |
| RRIRFRPPRLPRPRPRPYVVPRP | -0.252 |

| Sequence | shrunken log2 fold change |
| --- | --- |
| RRIRLRPPRLPRPRPRPPAGPRP | 0.607 |
| RRIRTRPPRLPRPRPRPSERPRP | -0.186 |
| RRIRPRPPRLPRPRPRPFCPPRP | -0.345 |
| RRIRPRPPRLPRPRPRPDCEPRP | 0.0556 |
| RRIRHRPPRLPRPRPRPGERPRP | -0.134 |
| RRIRIRPPRLPRPRPRPLDIPRP | -0.216 |
| RRIRCRPPRLPRPRPRPAPIPRP | 1.74 |
| RRIRLRPPRLPRPRPRPEKSPRP | 0.123 |
| RRIRCRPPRLPRPRPRPYPDPRP | -0.282 |
| RRIRMRPPRLPRPRPRPRVSPRP | 0.0315 |
| RRIRLRPPRLPRPRPRPCYRPRP | -0.145 |
| RRIRSRPPRLPRPRPRPFQGPRP | -0.0569 |
| RRIRGRPPRLPRPRPRPKLDPRP | 1.2 |
| RRIRWRPPRLPRPRPRPIQDPRP | 0.0265 |
| RRIRVRPPRLPRPRPRPGLSPRP | 0.32 |
| RRIRGRPPRLPRPRPRPRLQPRP | 0.759 |
| RRIRRRPPRLPRPRPRPCPEPRP | 0.0178 |
| RRIRFRPPRLPRPRPRPNMHPRP | -0.377 |
| RRIRGRPPRLPRPRPRPAKKPRP | 0.00559 |
| RRIRMRPPRLPRPRPRPMKIPRP | -0.00146 |
| RRIRQRPPRLPRPRPRPTTSPRP | 0.1 |
| RRIRDRPPRLPRPRPRPGWRPRP | 0.832 |
| RRIRCRPPRLPRPRPRPCTQPRP | -0.887 |
| RRIRMRPPRLPRPRPRPIWTPRP | 0.12 |
| RRIRERPPRLPRPRPRPHSMPRP | -0.126 |
